{
  "source": "paper PMC12624773",
  "about": "“Receptor activity–modifying protein 3 enhances GLP-1-mediated insulin secretion” (The Journal of Biological Chemistry, 2025)",
  "key": {"CLR–RAMP1": {"system": "CLR–RAMP1", "details": "ref [43]; cited from earlier work", "text": "As RAMP3 expression varies between tissues, it is possible that by directly targeting this complex, tissue-specific receptor activation could be facilitated. […] Agonists that have reduced affinity for the RAMP3 complex over the receptor alone ..."}, "INS-1 832/3 cells [1]": {"system": "INS-1 832/3 cells", "assay": "Glucose-stimulated insulin secretion in INS-1 832/3 cells, GLP-1R agonists", "type": "cell-based, rat", "details": "10 nM GLP-1; for effect of inhibitor on GLP-1-mediated insulin secretion: vector- and RAMP3-transfected, 30 min pretreatment, normalized to 10 nM GLP-1 + 0.1% DMSO"}, "Nluc–GLP-1R [2]": {"molecular_target": "T1, Nluc–GLP-1R (Homo sapiens, UniProt P43220)", "T1 sequence (P43220 24-463)": "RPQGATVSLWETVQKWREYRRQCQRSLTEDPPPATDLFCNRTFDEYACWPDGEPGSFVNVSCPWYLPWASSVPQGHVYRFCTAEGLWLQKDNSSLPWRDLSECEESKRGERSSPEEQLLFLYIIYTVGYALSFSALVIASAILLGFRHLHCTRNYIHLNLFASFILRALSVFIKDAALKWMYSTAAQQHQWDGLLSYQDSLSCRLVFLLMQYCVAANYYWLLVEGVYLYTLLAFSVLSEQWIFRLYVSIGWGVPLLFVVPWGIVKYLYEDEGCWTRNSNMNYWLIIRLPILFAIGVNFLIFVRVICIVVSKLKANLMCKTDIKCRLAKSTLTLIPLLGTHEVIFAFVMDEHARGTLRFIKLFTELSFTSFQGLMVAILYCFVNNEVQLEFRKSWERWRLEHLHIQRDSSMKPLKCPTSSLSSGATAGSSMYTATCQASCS", "type": "cell-based", "design": "signal peptide of murine serotonin 5-HT3R (sig) (N); expressed in transfected cells; host or cells: HEK293T", "details": "HEK293T, absence of RAMP3"}, "Nluc–GLP-1R [3]": {"molecular_target": "T1, Nluc–GLP-1R", "type": "cell-based", "design": "signal peptide of murine serotonin 5-HT3R (sig) (N); expressed in transfected cells; host or cells: HEK293T", "details": "HEK293T; over the concentration range tested"}, "[4]": {"details": "ref [3]; cited from earlier work", "text": "The incretin effect, whereby oral glucose elevates plasma insulin levels to a greater degree than intravenous administration, was first observed in 1964 ([1]). This is mediated by incretin hormones, the best known of which are GLP-1 and the glucose-dependent insulinotropic polypeptide (GIP). […] However, newer m ..."}, "Nluc–GLP-1R [5]": {"molecular_target": "T1, Nluc–GLP-1R"}, "GCGR with RAMP2": {"system": "GCGR with RAMP2", "details": "GCGR coexpressed with RAMP2; ref [13]; cited from earlier work"}, "INS-1 832/3 cells [6]": {"system": "INS-1 832/3 cells", "details": "10 nM GIP, […] glucose"}, "GIPR": {"system": "GIPR", "details": "Min6 B1, 8-min stimulation, n = 4"}, "Min6 B1 cells": {"system": "Min6 B1 cells", "assay": "Insulin secretion in siRNA-treated Min6 B1 cells", "details": "10 nM and 1 nM agonist, n = 4"}, "GLP-1R–Nluc (human)": {"molecular_target": "GLP-1R–Nluc (human) (UniProt P43220)", "sequence (P43220 24-463)": "as above"}},
  "note": "“Also recorded” adds a separate entry of the source. Numbered stars: 1 amine (or outer) side, 2 acyl side, 3 side chain; on linkers, the order of the positions; unused ones are H or OH. Bridge positions count the residues as written; N and C are the ends. Square brackets hold non-standard residues; d marks the D form. Peptide text beside a SMILES is read from it. X1 = CC(=O)NC(C(=O)OC(C(C)C)C(N[*:1])C(=O)[*:2])C(O)C(C)C; PhLac = O=C(O)[CH](O)Cc1ccccc1; NMeT = CN[CH](C(=O)O)[CH](C)O; NMeA = CN[CH](C)C(=O)O; NMeDha = C=C(NC)C(=O)O",
  "data": [
    {"molecule": "NCCCC[C@H](NC(=O)[C@@H](Cc1cc(Br)c(O)c(Br)c1)NC(=O)N1CCC(N2Cc3ccccc3NC2=O)CC1)C(=O)N1CCN(c2ccncc2)CC1", "note": "[BIBN 4096 BS]", "values": [
      {"measurement": "disruption of receptor–RAMP interaction", "setting": "CLR–RAMP1", "value": "disrupt the interaction"}
    ]},
    {"molecule": "CC(C)(C)c1cc(C(=O)/C(C#N)=N/Nc2cccc(Cl)c2)no1", "note": "[ESI-09]", "values": [
      {"measurement": "effect of inhibitor on GLP-1-mediated insulin secretion", "setting": "INS-1 832/3 cells [1]", "value": "significantly decreased; also recorded: significantly reduced insulin secretion"}
    ]},
    {"molecule": "Nc1ncnc2c1nc(Br)n2C1OC2COP(O)(=S)OC2C1O", "note": "(stereo not shown) [Rp-8-Br-cAMPs]", "values": [
      {"measurement": "effect of inhibitor on GLP-1-mediated insulin secretion", "setting": "INS-1 832/3 cells [1]", "value": "no effect; also recorded: unaffected"}
    ]},
    {"molecule": "C=C1C(=O)NC(C)C(=O)N(C)C(C)C(=O)NC(C(OC(=O)C(NC(C)=O)C(O)C(C)C)C(C)C)C(=O)N(C)C(C(C)OC)C(=O)OC(C)C(NC(C)=O)C(=O)OC(Cc2ccccc2)C(=O)N1C", "note": "(stereo not shown) [YM-254890] (Ac-T[PhLac][NMeDha]A[NMeA][X1][NMeT](Me); ester 1-C; configuration not given here)", "values": [
      {"measurement": "effect of inhibitor on GLP-1-mediated insulin secretion, RAMP3 vs vector", "setting": "INS-1 832/3 cells [1]; YM-254890 100 nM, PTX 0.2 ng/μl", "value": "decreased insulin secretion significantly only when RAMP3 was overexpressed; also recorded: only reduced insulin secretion in cells overexpressing RAMP3"}
    ]},
    {"molecule": "GLP-1 (9–36)", "values": [
      {"measurement": "(Ca^2+)i mobilization", "setting": "Nluc–GLP-1R [2]", "value": "unable to elicit any (Ca^2+)i mobilization"},
      {"measurement": "cAMP production", "setting": "Nluc–GLP-1R [3]", "value": "did not elicit sufficient cAMP production over the concentration range tested"}
    ]},
    {"molecule": "Semaglutide", "values": [
      {"measurement": "protection against neurodegeneration and neuroinflammation", "setting": "[4]", "value": "protect against neurodegeneration and neuroinflammation"}
    ]},
    {"molecule": "exendin-4 (from UniProt P26349 48-87) (peptide)", "values": [
      {"measurement": "Ca^2+ mobilization, HEK293T, + 2xFLAG-RAMP3; pEC50", "setting": "Nluc–GLP-1R [5]", "value": 8.6, "unit": "pEC50"},
      {"measurement": "Ca^2+ mobilization, HEK293T, receptor alone; pEC50", "setting": "Nluc–GLP-1R [5]", "value": 6.9, "unit": "pEC50"},
      {"measurement": "cAMP accumulation, 8-min stimulation, HEK293T, + 2xFLAG-RAMP3; pEC50", "setting": "Nluc–GLP-1R [5]", "value": 11.3, "unit": "pEC50"},
      {"measurement": "cAMP accumulation, 8-min stimulation, HEK293T, + FLAG-RAMP3; pEC50", "setting": "Nluc–GLP-1R [5]", "value": 11.6, "unit": "pEC50"},
      {"measurement": "cAMP accumulation, 8-min stimulation, HEK293T, receptor alone; pEC50", "setting": "Nluc–GLP-1R [5]", "value": 11.7, "unit": "pEC50"},
      {"measurement": "cAMP accumulation, 30-min stimulation, HEK293T, + 2xFLAG-RAMP3; pEC50", "setting": "Nluc–GLP-1R [5]", "value": 12.4, "unit": "pEC50"},
      {"measurement": "cAMP accumulation, 30-min stimulation, HEK293T, + FLAG-RAMP3; pEC50", "setting": "Nluc–GLP-1R [5]", "value": 12.8, "unit": "pEC50"},
      {"measurement": "cAMP accumulation, 30-min stimulation, HEK293T, receptor alone; pEC50", "setting": "Nluc–GLP-1R [5]", "value": 13.1, "unit": "pEC50"}
    ]},
    {"molecule": "glucagon: agonist of GCGR (cited)", "values": [
      {"measurement": "effect of RAMP2 on Gαs coupling/response at GCGR", "setting": "GCGR with RAMP2", "value": "increasing Gαs coupling"}
    ]},
    {"molecule": "glucose-dependent insulinotropic polypeptide [GIP]", "values": [
      {"measurement": "effect of RAMP1 transfection on insulin secretion", "setting": "INS-1 832/3 cells [6]", "value": "increased insulin secretion"},
      {"measurement": "effect of RAMP3 transfection on insulin secretion", "setting": "INS-1 832/3 cells [6]", "value": "increased insulin secretion"},
      {"measurement": "effect of RAMP3 siRNA on cAMP accumulation", "setting": "GIPR", "value": "no effect"},
      {"measurement": "effect of RAMP3 knockdown on insulin secretion", "setting": "Min6 B1 cells", "value": "unaffected"}
    ]},
    {"molecule": "liraglutide (peptide)", "values": [
      {"measurement": "Ca^2+ mobilization, HEK293T, + 2xFLAG-RAMP3; pEC50", "setting": "Nluc–GLP-1R [5]", "value": 7.5, "unit": "pEC50"},
      {"measurement": "Ca^2+ mobilization, HEK293T, + FLAG-RAMP3; pEC50", "setting": "Nluc–GLP-1R [5]", "value": 7.4, "unit": "pEC50"},
      {"measurement": "Ca^2+ mobilization, HEK293T, receptor alone; pEC50", "setting": "Nluc–GLP-1R [5]", "value": 7.5, "unit": "pEC50"},
      {"measurement": "cAMP accumulation, 8-min stimulation, HEK293T, + 2xFLAG-RAMP3; pEC50", "setting": "Nluc–GLP-1R [5]", "value": 9.9, "unit": "pEC50"},
      {"measurement": "cAMP accumulation, 8-min stimulation, HEK293T, + FLAG-RAMP3; pEC50", "setting": "Nluc–GLP-1R [5]", "value": 10.3, "unit": "pEC50"},
      {"measurement": "cAMP accumulation, 30-min stimulation, HEK293T, + 2xFLAG-RAMP3; pEC50", "setting": "Nluc–GLP-1R [5]", "value": 10.1, "unit": "pEC50"},
      {"measurement": "cAMP accumulation, 30-min stimulation, HEK293T, + FLAG-RAMP3; pEC50", "setting": "Nluc–GLP-1R [5]", "value": 10.3, "unit": "pEC50"},
      {"measurement": "cAMP accumulation, 30-min stimulation, HEK293T, receptor alone; pEC50", "setting": "Nluc–GLP-1R [5]", "value": 10.4, "unit": "pEC50"},
      {"measurement": "internalization (loss of BRET with RIT-Venus), HEK293T, + 2xFLAG-RAMP3; pEC50", "setting": "GLP-1R–Nluc (human)", "value": 7.6, "unit": "pEC50"},
      {"measurement": "internalization (loss of BRET with RIT-Venus), HEK293T, + FLAG-RAMP3; pEC50", "setting": "GLP-1R–Nluc (human)", "value": 8.2, "unit": "pEC50"},
      {"measurement": "internalization (loss of BRET with RIT-Venus), HEK293T, receptor alone; pEC50", "setting": "GLP-1R–Nluc (human)", "value": 8.5, "unit": "pEC50"},
      {"measurement": "β-arrestin1–YFP recruitment (BRET), HEK293T, + 2xFLAG-RAMP3; pEC50", "setting": "GLP-1R–Nluc (human)", "value": 7.5, "unit": "pEC50"},
      {"measurement": "β-arrestin1–YFP recruitment (BRET), HEK293T, + FLAG-RAMP3; pEC50", "setting": "GLP-1R–Nluc (human)", "value": 7.1, "unit": "pEC50"},
      {"measurement": "β-arrestin1–YFP recruitment (BRET), HEK293T, receptor alone; pEC50", "setting": "GLP-1R–Nluc (human)", "value": 7, "unit": "pEC50"},
      {"measurement": "β-arrestin2–YFP recruitment (BRET), HEK293T, + 2xFLAG-RAMP3; pEC50", "setting": "GLP-1R–Nluc (human)", "value": 7.5, "unit": "pEC50"},
      {"measurement": "β-arrestin2–YFP recruitment (BRET), HEK293T, + FLAG-RAMP3; pEC50", "setting": "GLP-1R–Nluc (human)", "value": 7.1, "unit": "pEC50"},
      {"measurement": "β-arrestin2–YFP recruitment (BRET), HEK293T, receptor alone; pEC50", "setting": "GLP-1R–Nluc (human)", "value": 7.3, "unit": "pEC50"}
    ]}
  ]
}
